We go through ten molecules from patent US20260274983A1 (MODERNATX, published 2026).

The target of assay [1] is T1, human GPRC5D (human, UniProt Q9NZD1 1-345).
T1 construct: whole, on cells; Human is stated only for CHO-HuGPRC5D; also called HuGPRC5D; GPRC5D on CHO-HuGPRC5D cells
Description: FACS on CHO-HuGPRC5D cells, VHH-His.

The target in assay [2] is T1, human GPRC5D. Description: FACS on H929 cells, VHH-His.
In assay [3] the target is T1, human GPRC5D. Description: FACS on H929 cells.
Assay [4] deals with T1, human GPRC5D. Description: FACS on CHO-HuGPRC5D cells.
Assay [5] addresses T2, human BCMA (human, UniProt Q02223 1-184).
T2 construct: whole, on cells; Human is stated only for CHO-HuBCMA; also called HuBCMA; B-cell maturation antigen
T2 sequence (looked up): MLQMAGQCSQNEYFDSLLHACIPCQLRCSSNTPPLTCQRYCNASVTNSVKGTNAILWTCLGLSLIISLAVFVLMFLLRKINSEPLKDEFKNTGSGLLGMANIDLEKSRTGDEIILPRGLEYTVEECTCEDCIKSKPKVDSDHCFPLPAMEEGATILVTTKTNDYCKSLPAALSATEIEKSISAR
The assay can be described thus: FACS on RPMI8226 cells, Fc formatted.

The target of assay [6] is T2, human BCMA. Description: FACS binding to RPMI8226 cells, Fc format [upper panel RPMI8226]. A general note: A flow cytometer gives signals particle by particle.
Assay [7] has as its target cynomolgus FcRH5 (cynomolgus). The assay can be described thus: FACS on RPMI8226-cyFcRH5 cells, VHH-His.
Assay [8] deals with T3, human FcRH5 (human, UniProt Q96RD9 16-977).
T3 construct: whole, on cells; also called huFcRH5; RPMI8226-huFcRH5
T3 sequence (looked up): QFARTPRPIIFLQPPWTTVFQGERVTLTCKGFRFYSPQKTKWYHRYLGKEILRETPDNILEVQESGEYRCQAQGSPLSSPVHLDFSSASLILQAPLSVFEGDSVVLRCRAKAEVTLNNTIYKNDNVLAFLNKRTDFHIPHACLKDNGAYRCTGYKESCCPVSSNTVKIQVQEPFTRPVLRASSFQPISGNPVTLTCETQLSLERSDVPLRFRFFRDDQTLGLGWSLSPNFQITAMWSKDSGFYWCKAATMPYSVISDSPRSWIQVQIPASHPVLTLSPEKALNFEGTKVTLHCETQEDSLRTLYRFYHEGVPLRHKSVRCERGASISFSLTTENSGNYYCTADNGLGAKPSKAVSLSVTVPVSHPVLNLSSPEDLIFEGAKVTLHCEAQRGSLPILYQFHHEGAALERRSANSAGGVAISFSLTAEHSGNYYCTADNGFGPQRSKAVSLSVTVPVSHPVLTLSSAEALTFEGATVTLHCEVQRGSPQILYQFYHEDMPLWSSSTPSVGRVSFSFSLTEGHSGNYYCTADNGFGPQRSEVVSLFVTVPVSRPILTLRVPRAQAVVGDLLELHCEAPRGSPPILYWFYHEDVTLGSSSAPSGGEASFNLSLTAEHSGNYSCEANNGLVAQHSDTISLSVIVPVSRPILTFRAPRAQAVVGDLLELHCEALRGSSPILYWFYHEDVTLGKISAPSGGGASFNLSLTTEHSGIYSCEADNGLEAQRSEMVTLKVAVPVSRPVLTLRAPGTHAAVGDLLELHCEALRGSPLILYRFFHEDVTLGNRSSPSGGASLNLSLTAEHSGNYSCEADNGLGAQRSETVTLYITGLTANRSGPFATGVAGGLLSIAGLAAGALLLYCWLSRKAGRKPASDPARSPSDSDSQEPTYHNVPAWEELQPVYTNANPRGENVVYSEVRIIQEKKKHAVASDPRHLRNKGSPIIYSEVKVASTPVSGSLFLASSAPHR
Description: FACS binding to RPMI-huFCRH5 (HuFcRH5-RPMI8226) cells, VHH-His format.

Assay [9] addresses T4, CD38 (UniProt P28907 1-300, limits assumed).
T4 construct: whole, on cells; also called CD38 on RPMI8226 cells; CD38 on H929 cells
T4 sequence (looked up): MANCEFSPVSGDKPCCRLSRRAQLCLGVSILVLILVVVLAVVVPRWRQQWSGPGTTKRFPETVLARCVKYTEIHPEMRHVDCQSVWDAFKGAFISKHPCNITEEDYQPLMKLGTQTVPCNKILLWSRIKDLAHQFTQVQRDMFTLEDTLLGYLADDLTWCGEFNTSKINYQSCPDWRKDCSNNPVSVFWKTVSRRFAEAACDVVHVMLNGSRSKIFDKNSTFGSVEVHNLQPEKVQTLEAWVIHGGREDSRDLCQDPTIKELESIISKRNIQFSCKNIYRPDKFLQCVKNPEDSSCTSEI
Description: FACS binding to RPMI8226 cells, VHH-His format.

The target of assay [10] is T3, human FcRH5. The assay can be described thus: FACS on RPMI8226-huFcRH5 cells, VHH-His.

Broadly, the EC50 is the concentration needed to bring the measured effect to its halfway point. A higher EC50 goes with weaker potency.

T1 sequence (Q9NZD1 whole entry): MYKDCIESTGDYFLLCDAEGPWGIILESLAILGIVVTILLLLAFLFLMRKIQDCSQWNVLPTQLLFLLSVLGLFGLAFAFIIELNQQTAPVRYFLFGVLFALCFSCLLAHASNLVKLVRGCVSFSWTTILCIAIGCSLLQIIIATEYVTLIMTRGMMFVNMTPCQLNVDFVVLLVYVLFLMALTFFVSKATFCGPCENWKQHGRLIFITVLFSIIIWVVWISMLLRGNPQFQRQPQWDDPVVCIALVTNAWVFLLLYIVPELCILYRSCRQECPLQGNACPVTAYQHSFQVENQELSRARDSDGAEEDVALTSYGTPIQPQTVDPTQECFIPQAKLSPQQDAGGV

B1: GPRC5D-VHH3 (VHH)
VHH: QVKLVESGGGLVQPGGSLRLSCVGSGIIFSASNLAWYRQALGKQRELVAGVTGGGSINYADSVKGRFTISRDNAKNTIYLQMNSLKPEDTAVYYCNARRSYSHWGQGTRVTVSS
For B1, the EC50 worked out at 4.23 nM in assay [1] and 1.65 nM in assay [2].

B2: GPRC5D-VHH3-H9 (VHH)
VHH: QVQLVESGGGLVQPGGSLRLSCAASGIIFSASNLAWYRQAPGKQRELVAGVTGGGSINYADSVKGRFTISRDNAKNTIYLQMNSLRAEDTAVYYCNARRSYSHWGQGTLVTVSS
notes: Humanized variant of GPRC5D-VHH3
For B2, the EC50 is 1.17 nM in [3] and 19.8 nM in assay [4].

B3: BCMA-VHH5 (Fc fusion)
chain: QVKLEESGGGLVQAGGSLRLSCAASGRTFSDYTVAWFRQAPGSEREFVAASVWTDGKPYYVDSVRGRFTISRDNAKNTVWLQMDSLQPDDTAVYYCQALTGGSWILDYWGQGTPVTVSS
notes: not shown: Fc of the Fc formatted construct
B3 gave an EC50 in [5] of 72.2 nM.

B4: BCMA-VHH21 (Fc fusion)
chain: QVKLEESGGGLVQAGGSLSLSCKASVRYFSTYAMGWFRQAPGKEREFVAAISWSGGSTYYADSVKGRFTISRDNAKNTVYLEMNSLKPEDTAVYYCAAPYGSSQNLEYDYWGQGTQVTVSS
notes: as for B3
For B4, the binding result in assay [6] is “no binding (tested: about 500 nM (log 2.7))”.

B5: FcRH5-VHH3 (VHH)
VHH: QVQLVESGGGSVQAGGSLRLSCVDSGHTLSTYAMGWFRQAPGKEREFVAAIARDGGATYLSGSAQGRATISRDNAKSTVYLQMNNLKPDDTAVYYCAASSMFSTAKRDYSYWGQGTQVTVSSHHHHHH
Molecule B5 gave an EC50 in [7] of 97.2 nM. For the same molecule, the binding result in [8] is given as “no binding (tested: 1000 nM)”.

B6: CD38-VHH4 (VHH)
VHH: QVQLVESGGGLVQPGGSLRLSCAASGFSLDYYHIGWFRQAPGKEREGISCISSSDGYTLYADSVKGRFTISRDNAKNTVYLQMNSLKPEDTAVYYCAASPRRLACAGSLYPPLSADFSSWGQGTQVTVSS
Regarding B6, the binding result in [9] is recorded as “binds”.

B7: BCMA-VHH22 (Fc fusion)
chain: HVQLVDSGGGLVQAGGSLRLSCAASGFTFDDYAMSWVRQAPGKGLEWVSAISWNGGSTYYAESMKGRFTISRDNTKNTLYLQMNSLKPEDSAVYYCVPVSHSDSVCGSPYMDYWGKGTLVTVSS
notes: as for B3
Regarding B7, a half-maximal effect in [5] (EC50) was put at 49.2 nM.

B8: FcRH5-VHH1 (VHH)
VHH: QVQFVESGGGLVQAGGSLRLSCAASGITVSRNDMGWYRQAPGKQRELVAIMNRVGSTDTADSVKDRFTISRDNTKNTLYLQMNNLKPEDTAVYYCNALNTVITWPWGQGTQVTVSSHHHHHH
Molecule B8 gave an EC50 in assay [10] of 7.2 nM.

B9: GPRC5D-VHH2-H5 (VHH)
VHH: QVQLVESGGGLVQPGGSLRLSCAASGRTASAYVMGWFRQAPGKEREFVAGISGGAYYADSVKGRFTISRDNSKNTVYLQMNSLRAEDTAVYYCAAERGMRRLTESYQYDYWGQGTLVTVSS
notes: Humanized variant of GPRC5D-VHH2
B9: the EC50 in assay [3] came out at 0.06 nM; in assay [4] it was 0.3 nM.

B10: BCMA-VHH24 (Fc fusion)
chain: QVKLEESGGGLVQAGGSLRLSCQVSGRTFASFAMAWFRQAPGKEREFVAGISWSGGFTSYADSVKGRFTISRDNAKHTVYLQMNSLKTEDTAMYYCGEWGGFSLLGQGTQVTVSS
notes: as for B3
Regarding B10, in assay [6], the binding result is given as “no binding (tested: about 500 nM (log 2.7))”.
